Data from PMC7401801.

Target: CRM1 (UniProt O14980)
Assay: GFP IP of CRM1-EGFP, Flag blot
Conditions: reference: Flag-TFEB wild type; sites S142

Substance: TFEB (from UniProt P19484) Flag-TFEB(S142A)
- binding against the reference: weaker
